We go through one molecule from patent publication US20030087407A1.

The target in experiment [1] is amyloid β-peptide 1-42 (Aβ1-42) (UniProt P05067). Put plainly: cell-based or functional assay.
Experiment [2] addresses amyloid β-peptide 1-40 (Aβ1-40) (UniProt P05067). Description: cell-based or functional assay.
For experiment [3] the target is unchanged. Description: quenching of intrinsic Tyr10 fluorescence of Aβ1-40 in solution at approximately 4 µM iAβ.
Experiment [4] shares this target. Description: quenching of intrinsic Tyr10 fluorescence of Aβ1-40 in solution by added iAβ, non-linear regression to a rectangular hyperbola.

The Kd is a measure of binding affinity in units of concentration. Higher therefore signals a looser complex.

As to RDLPFFPVPID [inhibitor of Aβ fibrillogenesis peptide (iAβ)], in experiment [1], the % of amyloid remaining, ThT fluorometric assay, 10-fold molar excess of peptide, 2 days is 57.9 % of amyloid; the inhibition of amyloid formation, thioflavine T fluorometric assay, 24 h, 5-fold molar excess of iAβ (% of inhibition) worked out at 28.7; the inhibition of amyloid formation, thioflavine T fluorometric assay, 24 h, 20-fold molar excess of iAβ (% of inhibition) was determined as 72.3; the inhibition of amyloid formation, thioflavine T fluorometric assay, 24 h, 40-fold molar excess of iAβ (% of inhibition) is 80.6. The molecule further showed a reduction of preformed fibrils, thioflavine T fluorometric assay, 24 h, 40-fold molar excess of iAβ (% fibril reduction) in experiment [1] of 51. Also, in experiment [2], the % of amyloid remaining, ThT fluorometric assay, 10-fold molar excess of peptide, 2 days is 25.5 % of amyloid; the amyloid formation, thioflavine T fluorometric assay, 24 h, 5-fold molar excess of iAβ (% of amyloid detectable in the absence of inhibitor) was found to be 33.9%; the amyloid formation, thioflavine T fluorometric assay, 24 h, 20-fold molar excess of iAβ (% of amyloid detectable in the absence of inhibitor) is 13.7%. This molecule gave a maximum quenching of the total fluorescence in experiment [3] of 12.6%. In experiment [4], this molecule yielded a Kd of 75.9 nM.
